Data: US20050129678A1 (published 2005)

T1: GST-Yil033C (yeast, UniProt P07278 1-416)
T1 construct: also called Yil033C-Bcy1; Yil033C-Bcyl; not shown: glutathione S-transferase (GST) fusion tag
T1 sequence (looked up): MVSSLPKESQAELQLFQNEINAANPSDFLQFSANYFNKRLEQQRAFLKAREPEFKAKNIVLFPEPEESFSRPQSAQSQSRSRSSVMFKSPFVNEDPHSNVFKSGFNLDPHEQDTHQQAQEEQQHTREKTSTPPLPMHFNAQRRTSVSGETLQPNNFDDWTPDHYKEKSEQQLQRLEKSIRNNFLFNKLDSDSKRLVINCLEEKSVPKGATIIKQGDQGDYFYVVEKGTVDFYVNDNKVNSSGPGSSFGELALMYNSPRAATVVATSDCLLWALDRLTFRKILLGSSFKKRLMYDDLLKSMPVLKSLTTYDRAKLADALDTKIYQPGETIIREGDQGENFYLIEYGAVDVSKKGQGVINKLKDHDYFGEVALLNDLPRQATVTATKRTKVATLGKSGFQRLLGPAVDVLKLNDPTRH

B1: GST-Ypl203W (enzyme, UniProt P06245 1-380, looked up)
chain: MEFVAERAQPVGQTIQQQNVNTYGQGVLQPHHDLQQRQQQQQQRQHQQLLTSQLPQKSLVSKGKYTLHDFQIMRTLGTGSFGRVHLVRSVHNGRYYAIKVLKKQQVVKMKQVEHTNDERRMLKLVEHPFLIRMWGTFQDARNIFMVMDYIEGGELFSLLRKSQRFPNPVAKFYAAEVILALEYLHAHNIIYRDLKPENILLDRNGHIKITDFGFAKEVQTVTWTLCGTPDYIAPEVITTKPYNKSVDWWSLGVLIYEMLAGYTPFYDTTPMKTYEKILQGKVVYPPYFHPDVVDLLSKLITADLTRRIGNLQSGSRDIKAHPWFSEVVWERLLAKDIETPYEPPITSGIGDTSLFDQYPEEQLDYGIQGDDPYAEYFQDF
notes: also called Ypl203W-Tpk2; Yp1203W; not shown: glutathione S-transferase (GST) fusion tag
B2: GST-Ykl166C (enzyme, UniProt P05986 1-398, looked up)
chain: MYVDPMNNNEIRKLSITAKTETTPDNVGQDIPVNAHSVHEECSSNTPVEINGRNSGKLKEEASAGICLVKKPMLQYRDTSGKYSLSDFQILRTLGTGSFGRVHLIRSNHNGRFYALKTLKKHTIVKLKQVEHTNDERRMLSIVSHPFIIRMWGTFQDSQQVFMVMDYIEGGELFSLLRKSQRFPNPVAKFYAAEVCLALEYLHSKDIIYRDLKPENILLDKNGHIKITDFGFAKYVPDVTYTLCGTPDYIAPEVVSTKPYNKSVDWWSFGVLIYEMLAGYTPFYNSNTMKTYENILNAELKFPPFFHPDAQDLLKKLITRDLSERLGNLQNGSEDVKNHPWFNEVIWEKLLARYIETPYEPPIQQGQGDTSQFDRYPEEEFNYGIQGEDPYMDLMKEF
notes: also called Ykl166C-Tpk3; Tpk3; not shown: glutathione S-transferase (GST) fusion tag
B3: GST-Yjl164C-Tpk1 (enzyme, UniProt P06244 1-397, looked up)
chain: MSTEEQNGGGQKSLDDRQGEESQKGETSERETTATESGNESKSVEKEGGETQEKPKQPHVTYYNEEQYKQFIAQARVTSGKYSLQDFQILRTLGTGSFGRVHLIRSRHNGRYYAMKVLKKEIVVRLKQVEHTNDERLMLSIVTHPFIIRMWGTFQDAQQIFMIMDYIEGGELFSLLRKSQRFPNPVAKFYAAEVCLALEYLHSKDIIYRDLKPENILLDKNGHIKITDFGFAKYVPDVTYTLCGTPDYIAPEVVSTKPYNKSIDWWSFGILIYEMLAGYTPFYDSNTMKTYEKILNAELRFPPFFNEDVKDLLSRLITRDLSQRLGNLQNGTEDVKNHPWFKEVVWEKLLSRNIETPYEPPIQQGQGDTSQFDKYPEEDINYGVQGEDPYADLFRDF
notes: not shown: glutathione S-transferase (GST) fusion tag
B4: endogenous Tpk1 (enzyme, yeast, UniProt P06244 2-397, looked up)
chain: STEEQNGGGQKSLDDRQGEESQKGETSERETTATESGNESKSVEKEGGETQEKPKQPHVTYYNEEQYKQFIAQARVTSGKYSLQDFQILRTLGTGSFGRVHLIRSRHNGRYYAMKVLKKEIVVRLKQVEHTNDERLMLSIVTHPFIIRMWGTFQDAQQIFMIMDYIEGGELFSLLRKSQRFPNPVAKFYAAEVCLALEYLHSKDIIYRDLKPENILLDKNGHIKITDFGFAKYVPDVTYTLCGTPDYIAPEVVSTKPYNKSIDWWSFGILIYEMLAGYTPFYDSNTMKTYEKILNAELRFPPFFNEDVKDLLSRLITRDLSQRLGNLQNGTEDVKNHPWFKEVVWEKLLSRNIETPYEPPIQQGQGDTSQFDKYPEEDINYGVQGEDPYADLFRDF
notes: Untagged yeast Tpk1 found in a GST fusion preparation; also called Tpk1wt; a protein with the same molecular weight as Tpk1

How the values were obtained:
GST-Yil033C = target: T1, GST-Yil033C; assay: microarray-based protein-protein interaction
endogenous Tpk1 = target: B4; assay: co-purification with the GST fusion, Western blot with anti-Tpk1
Source text: (§1) Tpk1 is a protein kinase involved in pseudohyphal growth and ras signal transduction (Robertson et al., 1998, Pro Natl Acad Sci USA 95, 13783-7; Tokiwa et al., 1994, Nature 371, 342-5). […] Three of these proteins, Ykl166C-Tpk3 (a protein kinase), Ypl203W-Tpk2 (a protein kinase) and Yil033C-Bcyl (a cAMP-dependent protein kinase inhibitor) have been shown by mass spectroscopy to be co-immunoprecipitated with Tpk1 (Ho et al., 2002, Nature 415, 180-3).
(§2) SDS-PAGE and Western analyses of Protein Samples. Purified proteins were mixed with sample buffer, heated and run in 5%/10% SDS-PAGE gels, transferred to nitrocellulose and blocked overnight with 1% BSA in TBST. Subsequently, blots were probed with primary antibodies for 2 hours, washed three times with TBST, probed with secondary antibodies conjugated to HRP for 1 hour and washed three times with TBST. Femto-reagent (Pierce Co., Milwaukee) was added and images acquired with an Alpha Innotech Imaging station.

GST-Ykl166C [1] = target: B2; assay: microarray-based protein interaction experiment
GST-Ykl166C [2] = target: B2; assay: co-purification with the GST fusion, Western blot with anti-Tpk1
Source text: as §1, §2

Binder | binding result (GST-Yil033C) | binding result (endogenous Tpk1) | binding result (GST-Ykl166C [1]) | binding result (GST-Ykl166C [2])
B1 | binds | no binding | – | –
B2 | binds | – | – | –
B3 | binds | – | no binding | –
B4 | – | – | – | no binding
